Target: ACP-HA labeled via ACP with Cy3
Assay: mock pull-down on magnetic beads from an equimolar mixture of Cy3-ACP-HA and Cy3-ACP-CaM-PCP; SDS-PAGE and in-gel fluorescence scanning; reference is ACP-CaM-PCP

enrichment of ACP-HA over ACP-CaM-PCP: 80 fold
Substance: primary-chloride-derivatized 12CA5 antibody immobilized via covalin on magnetic beads displaying BG

Reference: patent publication US20100075394A1
